The results in this text go back to patent US20250243286A1 (SIXPEAKS BIO, published 2025).

Read-outs that look alike come from different tables or passages of the source.

For assay [1], the target named is T1, ActRIIA and ActRIIB (on TGFB/SMAD SBE Reporter HEK293 cells) (human). Description: cell-based or functional assay.
Assay [2] addresses T1, ActRIIA and ActRIIB (on TGFB/SMAD SBE …). The assay is described as follows: cell-based or functional assay. This is another data set of the same source.
Assay [3] concerns the target T2, human ActRIIB (human, UniProt Q13705 19-137, limits assumed).
T2 construct: antigen in MSD-SET; also called ACVR2B; ActR2B
T2 sequence: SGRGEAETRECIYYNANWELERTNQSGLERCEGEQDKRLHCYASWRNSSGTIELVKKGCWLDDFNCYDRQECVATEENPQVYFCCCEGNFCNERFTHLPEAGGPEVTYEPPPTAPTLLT
Description: MSD-SET, preliminary.

Assay [4] deals with T3, human ActRIIA (human, UniProt P27037 20-135, limits assumed).
T3 construct: antigen in MSD-SET; also called ACVR2A; ActR2A
T3 sequence (P27037 20-135 limits assumed): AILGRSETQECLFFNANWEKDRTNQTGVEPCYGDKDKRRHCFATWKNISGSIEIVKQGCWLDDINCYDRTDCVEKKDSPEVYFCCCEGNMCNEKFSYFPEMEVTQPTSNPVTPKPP
The assay is described as follows: MSD-SET.

Assay [5] has as its target T2, human ActRIIB. Description: MSD-SET.
Assay [6] addresses T3, human ActRIIA. Description: MSD-SET. The source holds these as a separate data set.
Assay [7] has as its target T2, human ActRIIB. The assay is described as follows: MSD-SET. This is another data set of the same source.
Assay [8] concerns the target T2, human ActRIIB. The assay is described as follows: affinity measurement.
The target of assay [9] is T3, human ActRIIA. Description: MSD-SET, preliminary.

B1: Antibody Schwardamaga (antibody, V domains shown)
VH: QVQLVQSGAEVKKPGSSVKVSCKASGYTFTSSYINWVRQAPGQGLEWMGTINAVSGSTSYAQKFQGRVTITADTSTSTAYMELSSLRSEDTAVYYCARGGWFDYWGQGTLVTVSS
VL: QSALTQPRSVSGSPGQSVTISCTGTSSDVGSANYVNWYQQHPGKAPKPMIYGVSRRPSGVPDRFSGSKSGNTASLTISGLQAEDEADYYCGTFAGGKYYGVFGGGTKLTVL
notes: full-length IgG
In the case of B1, in assay [1], the IC50, Activin SMAD RGA worked out at 0.46 nM; the IC50 fold difference to bimagrumab, Activin SMAD RGA came out at 0.7 fold; the IC90, Activin SMAD RGA came out at 5.09 nM; the IC90 fold difference to bimagrumab, Activin SMAD RGA stood at 0.8 fold. Further, in assay [1], the IC95, Activin SMAD RGA came out at 12.8 nM; the IC95 fold difference to bimagrumab, Activin SMAD RGA stood at 39.3 fold; the IC99, Activin SMAD RGA was found to be 99 nM; the IC99 fold difference to bimagrumab, Activin SMAD RGA was determined as 305 fold. In assay [2], the IC50, Myostatin SMAD RGA is 0.75 nM; the IC50 fold difference to bimagrumab, Myostatin SMAD RGA was found to be 0.7 fold; the IC90, Activin SMAD RGA was 5.34 nM; the IC90, Myostatin SMAD RGA turned out to be 14.7 nM. In addition, in assay [2], the IC90 fold difference to bimagrumab, Activin SMAD RGA came to 1.8 fold; the IC90 fold difference to bimagrumab, Myostatin SMAD RGA turned out to be 0.9 fold; the IC95, Activin SMAD RGA was 14.2 nM; the IC95, Myostatin SMAD RGA came out at 41.5 nM. Also, in assay [2], the IC95 fold difference to bimagrumab, Activin SMAD RGA amounted to 2.7 fold; the IC95 fold difference to bimagrumab, Myostatin SMAD RGA amounted to 1.3 fold; the IC99, Activin SMAD RGA worked out at 124 nM; the IC99, Myostatin SMAD RGA was 425 nM. In [2], this molecule registered an IC99 fold difference to bimagrumab, Activin SMAD RGA of 6.7 fold and an IC99 fold difference to bimagrumab, Myostatin SMAD RGA of 6.3 fold. Binding in the assay with human ActRIIB [3] was put at a Kd of 0.0293 nM. For the same molecule, in the assay with human ActRIIA [4], the dissociation constant Kd (in general, the constant that tells how readily two partners part at equilibrium) was 0.0404 nM. The molecule further yielded a Kd in the assay with human ActRIIB [5] of 12.9 pM. For the same molecule, in the assay with human ActRIIA [6], binding was characterised by a dissociation constant (Kd) of 0.0404 nM. For the same molecule, the dissociation constant (Kd) with human ActRIIB [7] is 12.9 pM.

B2: Antibody Backstoikäs (antibody, V domains shown)
VH: QVQLVQSGAEVKKPGASVKVSCKASGYKFTSSYINWVRQAPGQGLEWMGTINPVSGSTSYAQKFQGRVTMTRDTSISTAYMELSRLRSDDTAVYYCARGGWFDYWGQGTLVTVSS
VL: QSALTQPASVSGSPGQSITISCTGTSSDVGSYNYVNWYQQHPGKAPKLMIYGVSKRPRGVSNRFSGSKSGNTASLTISGLQAEDEADYYCGTFAGGSYYGVFGGGTKLTVL
notes: full-length IgG
In assay [2], B2 yielded an IC50, Activin SMAD RGA of 0.18 nM; an IC50, Myostatin SMAD RGA of 0.0875 nM; an IC90, Activin SMAD RGA of 3.71 nM; an IC90, Myostatin SMAD RGA of 1.23 nM. Also, the binding result with human ActRIIB [8] is on record as “binds”.

B3: Antibody Soidawürstle (antibody, V domains shown)
VH: QVQLVQSGAEVRKPGSSVKVSCKASGYTFTSSYINWVRQAPGQGLEWMGTINPVSGSTSYAQKFQGRVTITADTSTSTAYMELSSLRSEDTAVYYCARGGWFDYWGQGTLVTVSS
VL: QSALTQPRSVSGSPGQSVTISCTGTSSDVGSYNRVNWYQQHPGKAPKLMIYGVSKRESGVPDRFSGSKSGNTASLTISGLQAEDEADYYCGTFAGGRYYGVFGGGTKLTVL
notes: full-length IgG; also called Soidawüsrstel
For the molecule B3, in assay [1], the IC50, Activin SMAD RGA was 0.16 nM; the IC50 fold difference to bimagrumab, Activin SMAD RGA worked out at 2 fold; the IC90, Activin SMAD RGA was found to be 1.81 nM; the IC90 fold difference to bimagrumab, Activin SMAD RGA came to 0.3 fold. Moreover, in assay [1], the IC95, Activin SMAD RGA came to 4.84 nM; the IC95 fold difference to bimagrumab, Activin SMAD RGA worked out at 14.9 fold; the IC99, Activin SMAD RGA turned out to be 19.3 nM; the IC99 fold difference to bimagrumab, Activin SMAD RGA was 59.5 fold. Further, in assay [2], the IC50, Myostatin SMAD RGA stood at 0.13 nM; the IC50 fold difference to bimagrumab, Myostatin SMAD RGA came out at 4.3 fold; the IC90, Activin SMAD RGA came to 2.16 nM; the IC90, Myostatin SMAD RGA was 6.63 nM. Also, in assay [2], the IC90 fold difference to bimagrumab, Activin SMAD RGA was determined as 4.3 fold; the IC90 fold difference to bimagrumab, Myostatin SMAD RGA was 2 fold; the IC95, Activin SMAD RGA worked out at 8.86 nM; the IC95, Myostatin SMAD RGA turned out to be 35 nM. In assay [2], this molecule gave an IC95 fold difference to bimagrumab, Activin SMAD RGA of 4.3 fold; an IC95 fold difference to bimagrumab, Myostatin SMAD RGA of 1.6 fold; an IC99, Activin SMAD RGA of 200 nM; an IC99, Myostatin SMAD RGA of 2000 nM. In assay [2], this molecule displayed an IC99 fold difference to bimagrumab, Activin SMAD RGA of 4.1 fold and an IC99 fold difference to bimagrumab, Myostatin SMAD RGA of 1.3 fold. Moreover, the equilibrium dissociation constant (Kd) with human ActRIIA [9] was 0.0345 nM. The molecule further came in with a Kd with human ActRIIB [3] of 0.0508 nM. For the same molecule, the equilibrium dissociation constant (Kd) with human ActRIIA [4] was 0.0342 nM. For the same molecule, the Kd in the assay with human ActRIIB [5] came out at 5.5 pM. In the assay with human ActRIIA [6], this molecule registered a dissociation constant Kd of 0.0342 nM. In the assay with human ActRIIB [7], this molecule came in with a dissociation constant Kd of 5.5 pM.
